The results in this text go back to patent publication US20160083461A1 (PHILOGEN S P A, published 2016).

Assay [1] addresses T1, antigen (11A12) containing the ED-A domain of human fibronectin (human, UniProt P02751 1629-1905).
T1 construct: Immobilised on a CM5 chip by amine coupling
Kind of assay: SPR (BIAcore), monomeric scFv over 11A12 immobilised on CM5 chip. Here is the method: The kₒₙ, koff and KD of the parent anti-ED-A antibody and anti-ED-A antibodies B2, C5, D5, C8, F8, B7 and G9 were evaluated using Surface Plasmon Resonance. The chip was equilibrated over night with the same buffer used during the assay at a buffer flow rate of 5 μl/min. The whole coating procedure was performed at this flow rate. The antigen 11A12 was diluted 1:25 with acetate buffer pH 4.00 (provided by BIACORE) to a final concentration of 20 μg/ml. The NHS and EDC were then mixed and 50 μl injected to activate the COOH groups on the CM5 chip. This was followed by injection of 40 μl of the antigen (this lasts about 40″). Then 30 μl of Ethanolammine were injected in order to block the reactivity of eventual free COOH.
Each sample was assayed at a flow rate 20 μl/min. 20 μl of undiluted monomeric protein (as it comes out from the gel filtration) was injected. The dissociation time was left to run for about 200″. Then 10 μl of HCl 10 mM was injected to regenerate the chip. The injection of monomeric protein was repeated at different dilutions, i.e. 1:2 dilution (in PBS) followed by regeneration with HCl. This was followed by a third injection of the protein, at a dilution of 1:4 followed again by regeneration with HCl. The kₒₙ, koff and KD values for each anti-ED-A antibody were evaluated using the BIAevaluation software.

For assay [2], the target named is T1, antigen (11A12) containing the ED-A …. Kind of assay: SPR (BIAcore analysis 1), bacterial supernatant of scFv over immobilised 11A12; flatter dissociation curve than the parent. Here is the method:
The BIAcore Chip was flushed overnight at a flow rate of 5 μl/min with HBS-EP buffer BIACORE, 0.01 M Hepes pH 7.4, 0.15 M NaCl, 3 mM EDTA, 0.005% surfactant P20 (same buffer used for the assay). The antigen (11A12) was diluted to a concentration of 50 μg/ml in acetate buffer (pH 4.0) and the COOH groups on the chip were activated by injection of 50 μl of a mix of N-Hydroxy Succinimmide (NHS) and ethyl-N-(dimethylaminopropyl)-carbodiimide (EDC). 40 μl of the 11A12 antigen were injected onto the chip and the residual free COOH groups were blocked with 30 μl of ethanolamine. After a 0.22 μm filtration, 20 μl of each individual bacterial supernatant were injected onto the chip and interaction with the antigen was monitored in real time.
The association curves of antibodies H1, C5, D5, E5, C8, F8 and F1 were flatter than that observed for the parent anti-ED-A antibody while the association curve observed for antibodies B2, B7, E8 and G9 was as steep as the association curve observed for the parent anti-ED-A antibody. However, as bacterial supernatants of IFTG-induced E. coli TG-1 cells were used for the BIAcore analysis of antibodies H1, B2, C5, D5, E5, C8, F8, F1, B7, E8 and G9, the concentration of the tested antibody samples was unknown but most probably lower than the concentration of the parent anti-ED-A antibody sample used for comparison. Consequently, the association curve of antibodies H1, B2, C5, D5, E5, C8, F8, F1, B7, E8 and G9 may be artificially low due to the low concentration of antibody in the samples used for the BIAcore analysis.

Where a chain is given by its changes, count along the chain named.

T1 sequence (P02751 other isoform, or with tags, fused parts or gaps limits assumed): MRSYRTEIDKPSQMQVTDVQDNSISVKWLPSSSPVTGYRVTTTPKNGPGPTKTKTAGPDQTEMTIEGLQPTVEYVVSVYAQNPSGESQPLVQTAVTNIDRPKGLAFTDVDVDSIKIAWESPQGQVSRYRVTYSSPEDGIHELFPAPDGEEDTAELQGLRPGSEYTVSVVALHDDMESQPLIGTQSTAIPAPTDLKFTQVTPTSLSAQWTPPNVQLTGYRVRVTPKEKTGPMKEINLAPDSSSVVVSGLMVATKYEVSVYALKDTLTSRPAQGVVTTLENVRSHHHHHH

B1: anti-ED-A antibody B7 (scFv)
scFv: EVQLVESGGGLVQPGGSLRLSCAASGFTFSHFDMSWVRQAPGKGLEWVSAISGSGGSTYYADSVKGRFTISRDNSKNTLYLQMNSLRAEDTAVYYCAKSTHLYLFDYWGQGTLVTVSSGGGGSGGGGSGGGGSGGGGSEIVLTQSPGTLSLSPGEKATLSCRASQSVSLAFLAWYQQKPGQAPRLLIYGASSRATGIPDRFSGSGSGTDFTLTISRLEPEDFAVYYCQQMRGRPPTFGQGTKVEIKAAAEQKLISEEDLNGAA
notes: scFv; Supernatant in BIAcore analysis 1, purified monomeric fraction in BIAcore analysis 2
As to B1, in assay [1], the Kd is around 16.8 nM, the koff was 0.0045 s⁻¹ and the kon was found to be 267000 M⁻¹ s⁻¹.

B2: anti-ED-A antibody C8 (scFv)
scFv: B1 scFv with H31L, F32Q, D33T, A170P
notes: as for B1
In assay [1], B2 registered a Kd of around 14 nM, an off-rate (koff) of 0.0053 s⁻¹ and a kon of 380000 M⁻¹ s⁻¹.

B3: anti-ED-A antibody E8 (scFv)
scFv: B1 scFv with H31D, F32M, D33H, L169S, A170S
notes: scFv, tested as bacterial supernatant in BIAcore analysis 1
With B3, in assay [2], the binding result is on record as “binds”.

B4: anti-ED-A antibody H1 (scFv)
scFv: B1 scFv with H31P, F32R, D33R, L169S, F171W
notes: scFv, tested as bacterial supernatant in BIAcore analysis 1; Tags from the pHEN1 vector are not described
As to B4, the binding result in assay [2] is listed as “binds”.

B5: anti-ED-A antibody E5 (scFv)
scFv: B1 scFv with H31T, F32G, D33S, F171H
notes: as for B3
On to B5, for which, in assay [2], the binding result was “binds”.

B6: anti-ED-A antibody F8 (scFv)
scFv: B1 scFv with H31L, D33T, L169M, A170P
notes: scFv format, not the F8 diabody; Supernatant in BIAcore analysis 1, purified monomeric fraction in BIAcore analysis 2; also called anti-ED-A scFv F8
In assay [1], B6 registered a Kd of around 3.1 nM, a koff of 0.0014 s⁻¹ and a kon of 465000 M⁻¹ s⁻¹.

B7: anti-ED-A antibody F1 (scFv)
scFv: B1 scFv with H31Q, F32A, D33R, L169A, A170P
notes: scFv, tested as bacterial supernatant (E. coli TG-1) in BIAcore analysis 1
In the case of B7, the binding result in assay [2] was “binds”.

B8: anti-ED-A antibody C5 (scFv)
scFv: B1 scFv with H31P, F32I, D33T, A170H
notes: as for B1
For the molecule B8, in assay [1], the Kd was around 30 nM, the off-rate constant (koff) is 0.00923 s⁻¹ and the kon is 304000 M⁻¹ s⁻¹.

B9: anti-ED-A antibody G9 (scFv)
scFv: B1 scFv with F32M, D33Q, L169T
notes: as for B1
In assay [1], B9 registered a Kd of around 20.9 nM, a koff of 0.00754 s⁻¹ and a kon of 360000 M⁻¹ s⁻¹.

B10: anti-ED-A antibody B2 (scFv)
scFv: B1 scFv with H31A, F32A, D33K, L169V
notes: as for B1
In assay [1], B10 yielded a Kd of around 20 nM, a koff of 0.00754 s⁻¹ and a kon of 380000 M⁻¹ s⁻¹.

B11: anti-ED-A antibody D5 (scFv)
scFv: B1 scFv with H31V, F32M, D33K, L169N
notes: as for B1
With B11, in assay [1], the Kd was around 17 nM, the koff came out at 0.0076 s⁻¹ and the kon was determined as 453000 M⁻¹ s⁻¹.
